Test results reported in US10130693B2, “Peptides, combination of peptides and scaffolds for use in immunotherapeutic treatment of various cancers” (Immatics Biotechnologies GmbH, priority 2015, dated 2018).

Legend:
HLA-A*02:01 = HLA-A*02:01 (Homo sapiens, UniProt P04439, D140Y/D185E/D98H/E176V/E277Q/G131W/G231S/I119V/I121R/I166T/I218V/L300P/L318F/N151K/N90K/P208A/P217A/Q86G/Q94H/R138H/R169H/T345S); experiment: MHC binding assay, UV-ligand exchange with beta2m ELISA (exchange yield), HLA-A*02; details: binding to HLA-A*02 ranged by peptide exchange yield
Excerpt: Candidate peptides for T cell based therapies according to the present invention were further tested for their MHC binding capacity (affinity). The individual peptide-MHC complexes were produced by UV-ligand exchange, where a UV-sensitive peptide is cleaved upon UV-irradiation, and exchanged with the peptide of interest as analyzed. Only peptide candidates that can effectively bind and stabilize the peptide-receptive MHC molecules prevent dissociation of the MHC complexes. To determine the yield of the exchange reaction, an ELISA was performed based on the detection of the light chain (β2m) of stabilized MHC complexes. The assay was performed as generally described in Rodenko et al. (Rodenko et al., 2006).
96 well MAXISorp plates (NUNC) were coated over night with 2 ug/ml streptavidin in PBS at room temperature, washed 4× and blocked for 1 h at 37° C. in 2% BSA containing blocking buffer. […] Peptide-MHC monomers of the UV-exchange reaction were diluted 100 fold in blocking buffer. Samples were incubated for 1 h at 37° C., washed four times, incubated with 2 ug/ml HRP conjugated anti-β2m for 1h at 37° C., washed again and detected with TMB solution that is stopped with […]. Absorption was measured at 450 nm. Candidate peptides that show a high exchange yield (preferably higher than 50%, most preferred higher than 75%) are generally preferred for a generation and production of antibodies or fragments thereof, and/or T cell receptors or fragments thereof, as they show sufficient avidity to the MHC molecules and prevent dissociation of the MHC complexes.

CD8+ T cells = experiment: In vitro immunogenicity: T-cell priming with aAPCs loaded with HLA-A*02 peptide/MHC and anti-CD28, multimer staining; assay type: cell-based, human; details: HLA-A*02 peptides
Excerpt: In order to obtain information regarding the immunogenicity of the TUMAPs of the present invention, the inventors performed investigations using an in vitro T-cell priming assay based on repeated stimulations of CD8+ T cells with artificial antigen presenting cells (aAPCs) loaded with peptide/MHC complexes and anti-CD28 antibody.
In order to perform in vitro stimulations by artificial antigen presenting cells loaded with peptide-MHC complex (pMHC) and anti-CD28 antibody, the inventors first isolated CD8+ T cells from fresh HLA-A*02 leukapheresis products via positive selection using CD8 microbeads (Miltenyi Biotec, Bergisch-Gladbach, Germany) of healthy donors obtained from the University clinics Mannheim, Germany, after informed consent.
PBMCs and isolated CD8+ lymphocytes were incubated in T-cell medium (TCM) until use consisting of RPMI-Glutamax (Invitrogen, Karlsruhe, Germany) supplemented with 10% heat inactivated human AB serum (PAN-Biotech, Aidenbach, Germany), 100 U/ml Penicillin/100 μg/ml Streptomycin (Cambrex, Cologne, Germany), 1 mM sodium pyruvate (CC Pro, Oberdorla, Germany), 20 μg/ml Gentamycin (Cambrex). 2.5 ng/ml IL-7 (PromoCell, Heidelberg, Germany) and 10 U/ml IL-2 (Novartis Pharma, Nürnberg, Germany) were also added to the TCM at this step.
Generation of pMHC/anti-CD28 coated beads, T-cell stimulations and readout was performed in a highly defined in vitro system using four different pMHC molecules per stimulation condition and 8 different pMHC molecules per readout condition.
The purified co-stimulatory mouse IgG2a anti human CD28 Ab 9.3 (Jung et al., 1987) was chemically biotinylated using Sulfo-N-hydroxysuccinimidobiotin as recommended by the manufacturer (Perbio, Bonn, Germany). Beads used were 5.6 μm diameter streptavidin coated polystyrene particles (Bangs Laboratories, Illinois, USA).
pMHC used for positive and negative control stimulations were A*0201/MLA-001 (peptide […] (SEQ ID NO. 418) from modified Melan-A/MART-1) and A*0201/DDX5-001 ([…] from DDX5, SEQ ID NO. 419), respectively.
800.000 beads/200 μl were coated in 96-well plates in the presence of 4×12.5 ng different biotin-pMHC, washed and 600 ng biotin anti-CD28 were added subsequently in a volume of 200 μl. Stimulations were initiated in 96-well plates by co-incubating 1×10^6 CD8+ T cells with 2×10^5 washed coated beads in 200 μl TCM supplemented with 5 ng/ml IL-12 (PromoCell) for 3 days at 37° C. Half of the medium was then exchanged by fresh TCM supplemented with 80 U/ml IL-2 and incubating was continued for 4 days at 37° C. This stimulation cycle was performed for a total of three times. For the pMHC multimer readout using 8 different pMHC molecules per condition, a two-dimensional combinatorial coding approach was used as previously described (Andersen et al., 2012) with minor modifications encompassing coupling to 5 different fluorochromes. Finally, multimeric analyses were performed by staining the cells with Live/dead near IR dye (Invitrogen, Karlsruhe, Germany), CD8-FITC antibody clone SK1 (BD, Heidelberg, Germany) and fluorescent pMHC multimers. For analysis, a BD LSRII SORP cytometer equipped with appropriate lasers and filters was used. Peptide specific cells were calculated as percentage of total CD8+ cells. Evaluation of multimeric analysis was done using the FlowJo software (Tree Star, Oregon, USA). In vitro priming of specific multimer+CD8+ lymphocytes was detected by comparing to negative control stimulations.

Substance	Peptide exchange (MHC class I binding score) (HLA-A*02:01)	in vitro immunogenicity, Wells positive [%] (CD8+ T cells)
2 (ALYGKLLKL; listed as Homo sapiens) [compound 2]	+++ (50%-75% = +++)	++++ (>=70% = ++++)
8 (KLGPFLLNA; listed as Homo sapiens) [compound 8]	+++ (50%-75% = +++)	+++ (50%-69% = +++)
9 (FLGDYVENL; listed as Homo sapiens) [compound 9]	++ (20%-49% = ++)	+ (<20% = +)
7 (AAAAKVPEV; listed as Homo sapiens) [compound 7]	+++ (50%-75% = +++)	+ (<20% = +)

More lines, main results first:

Peptide exchange (MHC class I binding score) (HLA-A*02:01)	Substance	in vitro immunogenicity, Wells positive [%] (CD8+ T cells)
+++ (50%-75% = +++)	322 (ALVSGGVAQA; listed as Homo sapiens) [compound 322]	+ (<20% = +)
+++ (50%-75% = +++)	331 (AIWKELISL; listed as Homo sapiens) [compound 331]	++ (20%-49% = ++)
+++ (50%-75% = +++)	17 (ILHEHHIFL; listed as Homo sapiens) [compound 17]	+ (<20% = +)
+++ (50%-75% = +++)	43 (LLWAGPVTA; listed as Homo sapiens) [compound 43]	++++ (>=70% = ++++)
